The source of these data is patent US20220105163A1.

The target of the experiment is Recombinant human IL-6 (human) (UniProt P05231). The experiment in a line: cell-based or functional assay.
Recombinant human IL-6 (human), sequence (P05231 30-212 limits assumed): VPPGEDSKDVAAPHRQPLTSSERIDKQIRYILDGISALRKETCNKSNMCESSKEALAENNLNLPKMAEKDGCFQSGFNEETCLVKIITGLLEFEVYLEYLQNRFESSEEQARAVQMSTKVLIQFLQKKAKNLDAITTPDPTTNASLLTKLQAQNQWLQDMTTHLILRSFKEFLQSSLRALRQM

B1: ALD518 (antibody, INN chains, looked up, V domains shown)
VH: EVQLVESGGGLVQPGGSLRLSCAASGFSLSNYYVTWVRQAPGKGLEWVGIIYGSDETAYATSAIGRFTISRDNSKNTLYLQMNSLRAEDTAVYYCARDDSSDWDAKFNLWGQGTLVTVSS
VL: AIQMTQSPSSLSASVGDRVTITCQASQSINNELSWYQQKPGKAPKLLIYRASTLASGVPSRFSGSGSGTDFTLTISSLQPDDFATYYCQQGYSLRNIDNAFGGGTKVEIK
In the case of B1, the IC50 (µg/mL), IL-6 induced TF-1 proliferation worked out at 0.629 µg/mL.
